The text below walks through data of publication PMC6078464.

The assay concerns the target PEDV nsp15 (H241A) (PEDV FJZZ strain). As to the kind of experiment: AUC.

Regarding PEDV nsp15 (H241A) (enzyme), the percentage as hexamer amounted to 81.2%.
